{"source": "patent US20170037149A1", "about": "(Amgen, published 2017)", "binders": {"B1": {"name": "FL-18 scFv (scFv)", "scFv": "QVTLKESGPVLVKPTQTLTLTCTFSGFSLSNARMGVSWIRQPPGKALEWLAHIFSNDEKSFSTSLKNRLTISKDTSKSQVVLTMTNMDPVDTATYYCARMVGYGSGWYAYFDYWGQGTQVTVSSGGGGSGGGGSGGGGSDIQMTQSPSSLSASVGDRVTITCRASQSISSYLNWYQQKPGKAPKLLIYAASSLQSGVPSRFSGSGSGTDFTLTISSLQPEDFATYYCLQHNSYPLTFGGGTKVEIK", "notes": "periplasmic prep"}, "B2": {"name": "FL-41 scFv (scFv)", "scFv": "QVTLKESGPVLVKPTQTLTLTCTFSGFSLSNARMGVSWIRQPPGKCLEWLAHIFSNDEKSFSTSLKNRLTISKDTSKSQVVLTMTNMDPVDTATYYCARMVGYGSGWYAYFDYWGQGTQVTVSSGGGGSGGGGSGGGGSDIQMTQSPSSLSASVGDRVTITCRASQSISSYLNWYQQKPGKAPKLLIYAASSLQSGVPSRFSGSGSGTDFTLTISSLQPEDFATYYCLQHNSYPLTFGCGTKVEIK", "notes": "periplasmic prep"}, "B3": {"name": "FL-19 scFv (scFv)", "scFv": "QVTLKESGPTLVKPTETLTLTCTVSGFSLSYARMGVSWIRQPPGKALEWLAQIFSNDEKSYSTSLKSRLTISKDTSKSQVVLTMTDMDPEDTATYYCARIVGYGTGWYGYFDYWGQGTQVTVSSGGGGSGGGGSGGGGSDIQMTQSPSSLSASVGDRVTITCRASQDIGDDLGWYQQKPGKAPKRLIYAASTLQSGVPFRFSGSGSGTDFTLTISSLQPEDFATYYCLQHNSYPLTFGGGTKVEIK", "notes": "periplasmic prep"}, "B4": {"name": "FL-31 scFv (scFv)", "scFv": "QVTLKESGPALVKPTQTLTLTCTFSGFSLSNARMGVSWIRQPPGKALEWLAHIFSNDEKSYSTSLKSRLTISKDTSKSQVVLTMTDMDPEDTATYYCARIVGYGTGWYGFFDYWGQGILVTVSSGGGGSGGGGSGGGGSDIQMTQSPSSLSASVGDRVTITCRTSQGIRNDLGWYQQKPGKAPKRLIYAASSLQSGVPSRFSGSGSGTEFTLTISSLQPEDFATYYCLQHNSYPLTFGGGTKVEIK", "notes": "periplasmic prep"}, "B5": {"name": "FL-40 scFv (scFv)", "scFv": "QVTLKESGPTLVKPTETLTLTCTVSGFSLSNARMGVSWIRQPPGKCLEWLANIFSNDEKSYSTSLKSRLTISKGTSKSQVVLTMTNVNPVDTGTYYCARIVGYGSGWYGYFDYWGQGTLVTVSSGGGGSGGGGSGGGGSDIQMTQSPSSLSASVGDRVTITCRASQDIRNDLGWYQQKPGKAPKRLIYATSIRQSGVPSRFTGSGSGTEFTLTISGLQPEDFATYFCLQHNSFPLTFGCGTKVEIK", "notes": "periplasmic prep"}, "B6": {"name": "FL-30 scFv (scFv)", "scFv": "QVTLKESGPVLVKPTQTLTLTCTFSGFSLSNARMGVSWIRQPPGKALEWLALIYWNDDKRYSPSLKSRLTITKDTSKNQVVLTMTNMDPVDTATYYCARMVGYGSGWYAYFDYWGQGTLVTVSSGGGGSGGGGSGGGGSDIQMTQSPSSLSASVGDRVTITCRASQGIRNDLGWYQQKPGKAPKRLIYAASSLQSGVPSRFSGSGSGTEFTLTISSLQPEDFATYYCLQHNSYPLTFGGGTKVEIK", "notes": "periplasmic prep"}, "B7": {"name": "FL-35 scFv (scFv)", "scFv": "QVTLKESGPALVKPTETLTLTCTVSGFSLNNARMGVSWIRQPPGKALEWLAHIFSNDEKSYSTSLKNRLTISKDSSKTQVVLTMTNVDPVDTATYYCARIVGYGTGWYGFFDYWGQGTQVTVSSGGGGSGGGGSGGGGSDIQMTQSPSSLSASVGDRVTITCRASQDIRDDLVWYQQKPGKAPKRLIYGTSTLQSGVPSRFSGSGSGTEFTLTISSLQPEDFATYYCLQHHSYPLTFGGGTKLEIK", "notes": "periplasmic prep"}}, "target": "T1, human FLT3 (human, UniProt P36888 27-993)", "T1 construct": "On transfected CHO cells, or on the FLT3 positive human AML cell lines EOL-1 / MV4-11 where the row says so; also called hu FLT3; full length human FLT3", "experiment": "FACS, scFv on CHO-human FLT3 pre-incubated with FLT3 ligand (competitor)", "experimental": "The detection was performed using mouse anti-FLAG+PE-conjugated goat anti-mouse and the Fluorescence median detected by FACS (median (+ligand)/median (w/o ligand)*100%)\nAfterwards cells were not washed but directly stained with FLT3 binder (scFv's). […] As negative control, cells were incubated with an unspecific scFv instead of FLT3 scFv.\nFor the evaluation of the data, the fluorescence median was detected by FACS."}
{"binder": "B1", "values": [{"measurement": "median [+ligand]/median [w/o ligand]*100", "value": "≥ 75", "unit": "%"}]}
{"binder": "B2", "values": [{"measurement": "median [+ligand]/median [w/o ligand]*100", "value": "≥ 75", "unit": "%"}]}
{"binder": "B3", "values": [{"measurement": "median [+ligand]/median [w/o ligand]*100", "value": "≥ 75", "unit": "%"}]}
{"binder": "B4", "values": [{"measurement": "median [+ligand]/median [w/o ligand]*100", "value": "≥ 75", "unit": "%"}]}
{"binder": "B5", "values": [{"measurement": "median [+ligand]/median [w/o ligand]*100", "value": "≥ 75", "unit": "%"}]}
{"binder": "B6", "values": [{"measurement": "median [+ligand]/median [w/o ligand]*100", "value": "≥ 75", "unit": "%"}]}
{"binder": "B7", "values": [{"measurement": "median [+ligand]/median [w/o ligand]*100", "value": "≥ 75", "unit": "%"}]}
